Biological target: IL-1 receptor (human) (UniProt P14778)
Assay: cell-based or functional assay

UniProt P14778, sequence (P14778 18-569): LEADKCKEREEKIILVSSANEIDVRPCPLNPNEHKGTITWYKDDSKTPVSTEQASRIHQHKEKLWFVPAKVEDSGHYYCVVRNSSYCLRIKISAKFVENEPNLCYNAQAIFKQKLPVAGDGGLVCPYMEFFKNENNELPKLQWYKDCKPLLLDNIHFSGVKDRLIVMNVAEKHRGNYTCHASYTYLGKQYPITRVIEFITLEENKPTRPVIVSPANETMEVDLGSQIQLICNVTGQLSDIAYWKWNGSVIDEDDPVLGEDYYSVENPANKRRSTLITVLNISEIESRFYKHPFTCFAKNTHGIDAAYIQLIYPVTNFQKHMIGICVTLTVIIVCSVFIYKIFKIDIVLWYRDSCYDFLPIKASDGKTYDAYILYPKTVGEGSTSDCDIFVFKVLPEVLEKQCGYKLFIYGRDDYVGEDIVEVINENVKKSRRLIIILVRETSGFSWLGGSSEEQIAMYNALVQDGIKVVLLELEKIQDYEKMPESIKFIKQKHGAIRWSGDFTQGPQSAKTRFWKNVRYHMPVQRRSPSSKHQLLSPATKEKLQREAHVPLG

IC50, inhibition of IL-1β stimulated release of IL-8 in human whole blood (100 pM rhIL-1β, IL-8 ELISA): 53.4 pM
Substance: Kineret® (anakinra) (from UniProt P18510 26-177) (ligand)

Source: patent US20090181019A1
